# *1 amine or outer side, *2 acyl side, *3 side chain or, on linkers, in order; H or OH if unused. Bridges are numbered along the chain shown (N, C = ends). Where no end group is shown, it is not given here. [ ]: non-standard residue; d: D form. TATA = O=C(CC[*:1])N1CN(C(=O)CC[*:2])CN(C(=O)CC[*:3])C1; Phe(4-COOH) = N[C@@H](Cc1ccc(C(=O)O)cc1)C(=O)O; 1Nal = N[C@@H](Cc1cccc2ccccc12)C(=O)O; 2Nal = N[C@@H](Cc1ccc2ccccc2c1)C(=O)O; hArg = N=C(N)NCCCC[C@H](N)C(=O)O; 2Pal = N[C@@H](Cc1ccccn1)C(=O)O; Aze = O=C(O)[C@@H]1CCN1; βAla = NCCC(=O)O; Sar = CNCC(=O)O
# T1: human Nectin-4 (human, UniProt Q96NY8 32-349)
# T1 construct: a Gly32-Ser349 FLAG construct is described only under the SPR assay; also called PVRL4
# T1 sequence (looked up): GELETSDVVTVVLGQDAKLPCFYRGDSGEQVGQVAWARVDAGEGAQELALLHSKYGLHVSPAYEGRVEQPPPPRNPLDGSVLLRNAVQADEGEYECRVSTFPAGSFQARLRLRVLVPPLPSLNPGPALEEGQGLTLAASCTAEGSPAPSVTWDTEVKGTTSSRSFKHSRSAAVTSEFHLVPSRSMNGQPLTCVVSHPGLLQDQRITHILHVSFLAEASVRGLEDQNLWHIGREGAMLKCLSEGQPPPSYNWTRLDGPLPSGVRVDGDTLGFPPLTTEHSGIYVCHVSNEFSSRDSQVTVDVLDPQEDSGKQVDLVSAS
# Biological target: T1, human Nectin-4
# Test: FP competition, tracer SEQ ID NO 217
# Protocol: Peptides were diluted to an appropriate concentration in assay buffer as described in the direct binding assay with a maximum of 5% DMSO, then serially diluted 1 in 2. […] Measurements were conducted as for the direct binding assay, however the gain was determined prior to the first measurement. Data analysis was in Systat Sigmaplot version 12.0 where the mP values were fit to a user defined cubic equation to generate a Ki value: […]
row,Ki,Binder
1,0.0719 µM,Ac-[Phe(4-COOH)]CPFGCMKNWSWPIWC (linker 2-6-16 via TATA) [BCY7656]
2,0.0294 µM,"Ac-CPFGCMKDWSWPIWC (linker 1-5-15 via TATA, also called 80-09-02-N050) [BCY7661]"
3,0.0336 µM,"Ac-CPFGCMSNWSWPIWC (linker 1-5-15 via TATA, also called 80-09-02-N047) [BCY7658]"
4,0.0148 µM,"Ac-CPFGCMKHWSWPIWC (linker 1-5-15 via TATA, also called 80-09-02-N051) [BCY7662]"
5,0.0241 µM,"Ac-CPFGCMKNWSTPIWC (linker 1-5-15 via TATA, also called 80-09-02-N054) [BCY7665]"
6,0.0779 µM,"Ac-CPFGCMDNWSWPIWC (linker 1-5-15 via TATA, also called 80-09-02-N048) [BCY7659]"
7,0.0262 µM,Ac-CPFGCM[hArg]NWSWPIWC (linker 1-5-15 via TATA) [BCY7660]
8,0.038 µM,Ac-Q[dD]WCAPLSDYWCNRIC (linker 4-12-16 via TATA) [BCY7993]
9,0.019 µM,Ac-QKWCAPLSDYWCARIC (linker 4-12-16 via TATA) [BCY7631]
10,0.123 µM,Ac-QKWCAPLSDYWCNAIC (linker 4-12-16 via TATA) [BCY7632]
11,0.0152 µM,Ac-Q[dA]WCAPLSDYWCNRIC (linker 4-12-16 via TATA) [BCY7635]
12,0.024 µM,Ac-[dA]KWCAPLSDYWCNRIC (linker 4-12-16 via TATA) [BCY7634]
13,0.522 µM,Ac-QK[dA]CAPLSDYWCNRIC (linker 4-12-16 via TATA) [BCY7636]
14,0.07 µM,Ac-CPFGCMKN[2Nal]SWPIWC (linker 1-5-15 via TATA) [BCY7664]
15,0.086 µM,QKWCAPLSXYWCNRIC (N-terminal Ac; TATA on 3 Cys) [BCY7640]
16,0.49 µM,Ac-QKWCAPL[dA]DYWCNRIC (linker 4-12-16 via TATA) [BCY7639]
17,0.0273 µM,Ac-CPFGCMKNWSWPI[2Nal]C (linker 1-5-15 via TATA) [BCY7667]
18,0.084 µM,Ac-CPF[dD]CK[hArg]NWSTPIWC (linker 1-5-15 via TATA) [BCY7821]
19,0.0151 µM,Ac-CPF[dD]CM[hArg]NWSTPKWC (linker 1-5-15 via TATA) [BCY8085]
20,0.0214 µM,Ac-CPF[dD]CL[hArg]NWSTPIWC (linker 1-5-15 via TATA) [BCY8039]
21,0.0108 µM,Ac-CPY[dD]CM[hArg]NWSTPIWC (linker 1-5-15 via TATA) [BCY8040]
22,0.027 µM,Ac-CPF[dD]CM[hArg]KWSTPIWC (linker 1-5-15 via TATA) [BCY7822]
23,0.008 µM,Ac-CPF[dD]CL[hArg]NWSTPPWC (linker 1-5-15 via TATA) [BCY8038]
24,0.0075 µM,Ac-CPF[dD]CM[hArg]NWSTPPWC (linker 1-5-15 via TATA) [BCY8036]
25,0.0255 µM,Ac-CPFGCMKN[1Nal]SWPIWC (linker 1-5-15 via TATA) [BCY7663]
26,0.042 µM,CPF[dD]CM[hArg]NWSTPIWC (linker 1-5-15 via TATA) [BCY7793]
27,0.019 µM,Ac-QKWCAPLSDYWC[dA]RIC (linker 4-12-16 via TATA) [BCY7643]

# Further lines, the binder ahead of its results:
row,Binder,Ki
1,ACWPLDPYWCGRICA (linker 2-10-14 via TATA) [BCY430],0.31 µM
2,"ACPFGCMKNWSWPIWCA (linker 2-6-16 via TATA, also called 80-09-02-N002) [BCY428]",0.061 µM
3,Ac-[dD]CPFGCMKNWSWPIWC (linker 2-6-16 via TATA) [BCY7606],0.034 µM
4,Ac-CPFK(Ac)CMKNWSWPIWC (linker 1-5-15 via TATA) [BCY7611],0.205 µM
5,"Ac-CPFGCMKNWSWPIWC (linker 1-5-15 via TATA, also called 80-09-02-N008) [BCY7390]",0.0171 µM
6,Ac-CPFGCMKNWSYPIWC (linker 1-5-15 via TATA) [BCY7590],0.0385 µM
7,Ac-CGFGCMKNWSWPIWC (linker 1-5-15 via TATA) [BCY7607],0.077 µM
8,"Ac-CPFGCMKNWSDPIWC (linker 1-5-15 via TATA, also called 80-09-02-N022) [BCY7540]",0.357 µM
9,Ac-CPFGCMKNWSFPIWC (linker 1-5-15 via TATA) [BCY7589],0.0345 µM
10,Ac-CPFGCMPNWSWPIWC (linker 1-5-15 via TATA) [BCY7614],0.021 µM
11,Ac-CPFGCMKNWSWPIFC (linker 1-5-15 via TATA) [BCY7596],0.353 µM
12,Ac-CPFGCMKNWSWPIYC (linker 1-5-15 via TATA) [BCY7597],0.169 µM
13,Ac-QKWCAPLSDYWCNRIC (linker 4-12-16 via TATA) [BCY7392],0.0272 µM
14,Ac-AKWCAPLSDYWCNRIC (linker 4-12-16 via TATA) [BCY7622],0.031 µM
15,Ac-QKWCAALSDYWCNRIC (linker 4-12-16 via TATA) [BCY7625],0.141 µM
16,Ac-QKACAPLSDYWCNRIC (linker 4-12-16 via TATA) [BCY7624],0.571 µM
17,Ac-QKWCAPLADYWCNRIC (linker 4-12-16 via TATA) [BCY7627],0.101 µM
18,Ac-QAWCAPLSDYWCNRIC (linker 4-12-16 via TATA) [BCY7623],0.021 µM
19,Ac-CP[2Pal]GCMKNWSWPIWC (linker 1-5-15 via TATA) [BCY7620],0.246 µM
20,[βAla][Sar][Sar][Sar][Sar][Sar]CPF[dD]CM[hArg]NWSWPIWC (linker 7-11-21 via TATA) [BCY7556],0.0261 µM
21,{Ac-βAla}-[Sar][Sar][Sar][Sar][Sar]CPF[dD]CM[hArg]NWSWPIWC (linker 6-10-20 via TATA) [BCY7558],0.0219 µM
22,[βAla][Sar][Sar][Sar][Sar][Sar]CPF[dA]CM[hArg]NWSWPIWC (linker 7-11-21 via TATA) [BCY7557],0.0225 µM
23,{Ac-βAla}-[Sar][Sar][Sar][Sar][Sar]CPF[dA]CM[hArg]NWSWPIWC (linker 6-10-20 via TATA) [BCY7559],0.017 µM
24,Ac-C[Aze]FGCMKNWSWPIWC (linker 1-5-15 via TATA) [BCY7608],0.042 µM
25,"ACPFGCMRNWSWPIWCA (linker 2-6-16 via TATA, also called 80-09-02-N003) [BCY429]",0.0426 µM

# From patent publication US20210269480A1 (published 2021)
